Consider one substance from patent US20200024330A1.

What is called IC50 is the midpoint of a concentration-inhibition curve.

Holding throughout (experiment): cell-based or functional assay
Assay [1] has as its target HIV-1 MGRM-C-027 envelope glycoprotein (Env) (HIV-1).
In assay [2] the target is HIV-1 Env of isolate MGRM-A-003 (HIV-1).
Assay [3] concerns the target HIV-1 92TH021 envelope protein (Env) on pseudotyped virus (HIV-1 isolate 92TH021).
For assay [4], the target named is HIV-1 MGRM-C-014 Env (HIV-1).
Assay [5] addresses HIV-1 APV6 envelope glycoprotein (Env) (HIV-1).
The target of assay [6] is HIV-1 MGRM-C-006 Env (HIV-1).
In assay [7] the target is HIV-1 APV-17 envelope protein (Env) on pseudovirus (HIV-1).
Assay [8] addresses HIV-1 Env of isolate MGRM-D-024 (HIV-1).
The target of assay [9] is HIV-1 Env of isolate MGRM-F1-006 (HIV-1).
Assay [10] concerns the target HIV-1 NL43 envelope protein (Env) on pseudotyped virus (HIV-1 NL43).
In assay [11] the target is HIV-1 92TH021 envelope protein (Env) on pseudovirus (HIV-1).
The target in assay [12] is HIV-1 Env of isolate VLGCA1 (HIV-1).
Assay [13] concerns the target HIV-1 Env of isolate CMU02 (HIV-1).
For assay [14], the target named is HIV-1 MGRM-A-014 envelope glycoprotein (Env) (HIV-1).
The target in assay [15] is HIV-1 Env of isolate MGRM-G-014 (subtype G) (HIV-1).
For assay [16], the target named is HIV-1 MGRM-D-018 envelope glycoprotein (Env) on pseudovirus (HIV-1).

As to 1496_C09 (PG9) (TCN-109) (antibody), the IC50 neutralization in assay [1] was 2.45 µg/mL; in assay [5] it was 0.214 µg/mL; in assay [16], 0.0444 µg/mL. For the same substance, the IC50 in assay [2] turned out to be 1.94 µg/mL; in assay [4], 0.64 µg/mL; in [6], 0.23 µg/mL. The IC50, pseudovirus neutralization, 1 hour Virus/Ab Incubation was found to be 0.0612 µg/mL in [3] and 0.294 µg/mL in assay [10]. In addition, the IC50, pseudovirus neutralization, 18 hour Virus/Ab Incubation in assay [3] was 0.0571 µg/mL; in assay [10] it was 38 µg/mL. For the same substance, the values for the neutralization IC50 in assay [7], in [11] and in [15] were 26.4 µg/mL, 0.111 µg/mL and 16.5 µg/mL, respectively. The IC50 (µg/mL), pseudovirus neutralization in assay [8] worked out at 0.038 µg/mL; in [9], 7.25 µg/mL; in assay [12], 0.069 µg/mL. Also, the values for the IC50 (µg/ml), pseudovirus neutralization in assay [13] and in assay [14] were 7.69 µg/mL and 0.62 µg/mL, respectively. Moreover, in [16], the IC50 (ug/ml), neutralizing activity came out at 2.04 µg/mL. This substance had an IC80, neutralization in assay [16] of 0.18 µg/mL. The same substance returned an IC90, neutralization in assay [16] of 0.43 µg/mL. This substance also gave an IC95, neutralization in assay [16] of 1.05 µg/mL.
